Laboratory results: US20080199473A1 (CLEVELAND CLINIC FOUNDATION, published 2008)

Target: T1, 35S-labelled luciferase (UniProt P08659 1-550 = luciferase, 35S label (in-vitro-translated))
T1 construct: Negative control of the pull-down; also called luciferase (about 61 kDa)
Assay: GST pull-down, 35S-labelled luciferase

T1 sequence (P08659 whole entry): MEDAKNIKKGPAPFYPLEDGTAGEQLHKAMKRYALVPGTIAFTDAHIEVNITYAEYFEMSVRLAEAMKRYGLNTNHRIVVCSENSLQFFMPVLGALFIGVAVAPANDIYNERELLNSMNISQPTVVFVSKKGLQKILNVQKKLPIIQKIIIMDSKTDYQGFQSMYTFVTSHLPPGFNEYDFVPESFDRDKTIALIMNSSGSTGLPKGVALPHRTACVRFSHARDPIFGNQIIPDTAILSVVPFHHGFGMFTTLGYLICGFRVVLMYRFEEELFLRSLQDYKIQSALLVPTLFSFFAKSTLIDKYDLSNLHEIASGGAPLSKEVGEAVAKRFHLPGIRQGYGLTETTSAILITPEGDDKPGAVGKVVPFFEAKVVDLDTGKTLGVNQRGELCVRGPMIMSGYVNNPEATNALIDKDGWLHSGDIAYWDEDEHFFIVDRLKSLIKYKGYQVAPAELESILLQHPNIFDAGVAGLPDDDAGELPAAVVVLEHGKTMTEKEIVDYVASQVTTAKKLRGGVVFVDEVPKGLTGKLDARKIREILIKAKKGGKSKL

B1: GST-TWEAK protein (ligand, UniProt O43508 136-249, looked up)
chain: ARINSSSPLRYNRQIGEFIVTRAGLYYLYCQVHFDEGKAVYLKLDLLVDGVLALRCLEEFSATAASSLGPQLRLCQVSGLLALRPGSSLRIRTLPWAHLKAAPFLTYFGLFQVH
notes: also called GST-TWEAK fusion protein; not shown: glutathione S-transferase (GST) tag
Does B1 bind?
Result: no binding
